Experimental data taken from patent US20240368250A1 (Ablynx, published 2024).

B1: TP019 (Fc fusion)
chain 1: DVQLVESGGGLVQPGGSLRLSCAASGLTFSTNPMYWYRQAPGKQRELVASISSRGITNYADSVKGRFTISRDNSKNTVYLQMNSLRPEDTAVYYCRLASLSSGTVYWGQGTLVTVSSDKTHTCPPCPAPEAAGGPSVFLFPPKPKDTLMASRTPEVTCVVVDVSQEDPEVQFNWYVDGVEVHNAKTKPREEQFNSTYRVVSVLTVLAQDWLNGKEYKCKVSNKGLPSSIEKTISKAKGQPREPQVYTLPPCQEEMTKNQVSLWCLVKGFYPSDIAVEWESNGQPENNYKTTPPVLDSDGSFFLYSKLTVDKSRWQEGNVFSCSVMHEALHNAYTQKSLSLSLGGGGGSGGGGSGGGGSGGGGSGGGGSGGGGSGGGGSEVQLVESGGGVVQPGGSLRLSCAASGFTFRSFGMSWVRQAPGKGPEWVSSISGSGSDTLYADSVKGRFTISRDNSKNTLYLQMNSLRPEDTALYYCTIGGSLSRSSQGTLVTVSS
chain 2: DKTHTCPPCPAPEAAGGPSVFLFPPKPKDTLMASRTPEVTCVVVDVSQEDPEVQFNWYVDGVEVHNAKTKPREEQFNSTYRVVSVLTVLAQDWLNGKEYKCKVSNKGLPSSIEKTISKAKGQPREPQVCTLPPSQEEMTKNQVSLSCAVKGFYPSDIAVEWESNGQPENNYKTTPPVLDSDGSFFLVSKLTVDKSRWQEGNVFSCSVMHEALHNAYTQKSLSLSLG
B2: TPP-66176 (Fc fusion)
chain: DVQLVESGGGVVQAGGSLSISCAASGGSLSNYVLGWFRQAPGKEREFVAAINWRGDITIGPPNVEGRFTISRDNAKNTGYLQMNSLAPDDTALYYCGAGTPLNPGAYIYDWSYDYWGRGTLVTVSSDKTHTCPSCPAPEAAGGPSVFLFPPKPKDTLMISRTPEVTCVVVDVSQEDPEVQFNWYVDGVEVHNAKTKPREEQFNSTYRVVSVLTVLHQDWLNGKEYKCKVSNKGLPSSIEKTISKAKGQPREPQVYTLPPSQEEMTKNQVSLTCLVKGFYPSDIAVEWESNGQPENNYKTTPPVLDSDGSFFLYSKLTVDKSRWQEGNVFSCSVMHEALHNHYTQKSLSLSLGGGGGSGGGGSGGGGSGGGGSGGGGSGGGGSGGGGSEVQLVESGGGVVQAGGSLSISCAASGGSLSNYVLGWFRQAPGKEREFVAAINWRGDITIGPPNVEGRFTISRDNAKNTGYLQMNSLAPDDTALYYCGAGTPLNPGAYIYDWSYDYWGRGTLVTVSSA
notes: Symmetrical IgG4 FALA Fc fusion without knob-in-hole mutations, four irrelevant ISVDs; control; also called symmetrical ISVD-Fc polypeptide
B3: TPP-66152 (Fc fusion)
chain 1: DVQLVESGGGVVQAGGSLSISCAASGGSLSNYVLGWFRQAPGKEREFVAAINWRGDITIGPPNVEGRFTISRDNAKNTGYLQMNSLAPDDTALYYCGAGTPLNPGAYIYDWSYDYWGRGTLVTVSSDKTHTCPPCPAPEAAGGPSVFLFPPKPKDTLMISRTPEVTCVVVDVSQEDPEVQFNWYVDGVEVHNAKTKPREEQFNSTYRVVSVLTVLHQDWLNGKEYKCKVSNKGLPSSIEKTISKAKGQPREPQVYTLPPCQEEMTKNQVSLWCLVKGFYPSDIAVEWESNGQPENNYKTTPPVLDSDGSFFLYSKLTVDKSRWQEGNVFSCSVMHEALHNHYTQKSLSLSLG
chain 2: DVQLVESGGGVVQAGGSLSISCAASGGSLSNYVLGWFRQAPGKEREFVAAINWRGDITIGPPNVEGRFTISRDNAKNTGYLQMNSLAPDDTALYYCGAGTPLNPGAYIYDWSYDYWGRGTLVTVSSDKTHTCPPCPAPEAAGGPSVFLFPPKPKDTLMISRTPEVTCVVVDVSQEDPEVQFNWYVDGVEVHNAKTKPREEQFNSTYRVVSVLTVLHQDWLNGKEYKCKVSNKGLPSSIEKTISKAKGQPREPQVCTLPPSQEEMTKNQVSLSCAVKGFYPSDIAVEWESNGQPENNYKTTPPVLDSDGSFFLVSKLTVDKSRWQEGNVFSCSVMHEALHNRFTQKSLSLSLGGGGGSGGGGSGGGGSGGGGSGGGGSGGGGSGGGGSLKEAKEKAIEELKKAGITSDYYFDLINKAKTVEGVNALKDEILKA
notes: IgG4 FALA Fc knob-in-hole, C-terminal ABD via 35GS on chain 2
B4: TPP-66143 (Fc fusion)
chain 1: DVQLVESGGGVVQAGGSLSISCAASGGSLSNYVLGWFRQAPGKEREFVAAINWRGDITIGPPNVEGRFTISRDNAKNTGYLQMNSLAPDDTALYYCGAGTPLNPGAYIYDWSYDYWGRGTLVTVSSDKTHTCPPCPAPEAAGGPSVFLFPPKPKDTLMISRTPEVTCVVVDVSQEDPEVQFNWYVDGVEVHNAKTKPREEQFNSTYRVVSVLTVLHQDWLNGKEYKCKVSNKGLPSSIEKTISKAKGQPREPQVYTLPPCQEEMTKNQVSLWCLVKGFYPSDIAVEWESNGQPENNYKTTPPVLDSDGSFFLYSKLTVDKSRWQEGNVFSCSVMHEALHNHYTQKSLSLSLGGGGGSGGGGSGGGGSGGGGSGGGGSGGGGSGGGGSEVQLVESGGGVVQAGGSLSISCAASGGSLSNYVLGWFRQAPGKEREFVAAINWRGDITIGPPNVEGRFTISRDNAKNTGYLQMNSLAPDDTALYYCGAGTPLNPGAYIYDWSYDYWGRGTLVTVSSA
chain 2: DVQLVESGGGVVQAGGSLSISCAASGGSLSNYVLGWFRQAPGKEREFVAAINWRGDITIGPPNVEGRFTISRDNAKNTGYLQMNSLAPDDTALYYCGAGTPLNPGAYIYDWSYDYWGRGTLVTVSSDKTHTCPPCPAPEAAGGPSVFLFPPKPKDTLMISRTPEVTCVVVDVSQEDPEVQFNWYVDGVEVHNAKTKPREEQFNSTYRVVSVLTVLHQDWLNGKEYKCKVSNKGLPSSIEKTISKAKGQPREPQVCTLPPSQEEMTKNQVSLSCAVKGFYPSDIAVEWESNGQPENNYKTTPPVLDSDGSFFLVSKLTVDKSRWQEGNVFSCSVMHEALHNRFTQKSLSLSLG
notes: IgG4 FALA Fc knob-in-hole (hole chain H435R, Y436F) with three irrelevant ISVDs; control; also called control ISVD-Fc polypeptide
B5: TPP-66175 (Fc fusion)
chain 1: DVQLVESGGGVVQAGGSLSISCAASGGSLSNYVLGWFRQAPGKEREFVAAINWRGDITIGPPNVEGRFTISRDNAKNTGYLQMNSLAPDDTALYYCGAGTPLNPGAYIYDWSYDYWGRGTLVTVSSDKTHTCPPCPAPEAAGGPSVFLFPPKPKDTLYITREPEVTCVVVDVSQEDPEVQFNWYVDGVEVHNAKTKPREEQFNSTYRVVSVLTVLHQDWLNGKEYKCKVSNKGLPSSIEKTISKAKGQPREPQVYTLPPCQEEMTKNQVSLWCLVKGFYPSDIAVEWESNGQPENNYKTTPPVLDSDGSFFLYSKLTVDKSRWQEGNVFSCSVMHEALHNHYTQKSLSLSLGGGGGSGGGGSGGGGSGGGGSGGGGSGGGGSGGGGSEVQLVESGGGVVQAGGSLSISCAASGGSLSNYVLGWFRQAPGKEREFVAAINWRGDITIGPPNVEGRFTISRDNAKNTGYLQMNSLAPDDTALYYCGAGTPLNPGAYIYDWSYDYWGRGTLVTVSSA
chain 2: DVQLVESGGGVVQAGGSLSISCAASGGSLSNYVLGWFRQAPGKEREFVAAINWRGDITIGPPNVEGRFTISRDNAKNTGYLQMNSLAPDDTALYYCGAGTPLNPGAYIYDWSYDYWGRGTLVTVSSDKTHTCPPCPAPEAAGGPSVFLFPPKPKDTLYITREPEVTCVVVDVSQEDPEVQFNWYVDGVEVHNAKTKPREEQFNSTYRVVSVLTVLHQDWLNGKEYKCKVSNKGLPSSIEKTISKAKGQPREPQVCTLPPSQEEMTKNQVSLSCAVKGFYPSDIAVEWESNGQPENNYKTTPPVLDSDGSFFLVSKLTVDKSRWQEGNVFSCSVMHEALHNRFTQKSLSLSLG
notes: IgG4 FALA Fc (YTE) knob-in-hole with three irrelevant ISVDs; control; also called control ISVD-Fc(YTE) polypeptide
B6: TP016 (Fc fusion)
chain 1: DVQLVESGGGLVQPGGSLRLSCAASGLTFSTNPMYWYRQAPGKQRELVASISSRGITNYADSVKGRFTISRDNSKNTVYLQMNSLRPEDTAVYYCRLASLSSGTVYWGQGTLVTVSSDKTHTCPPCPAPEAAGGPSVFLFPPKPKDTLMASRTPEVTCVVVDVSQEDPEVQFNWYVDGVEVHNAKTKPREEQFNSTYRVVSVLTVLAQDWLNGKEYKCKVSNKGLPSSIEKTISKAKGQPREPQVYTLPPCQEEMTKNQVSLWCLVKGFYPSDIAVEWESNGQPENNYKTTPPVLDSDGSFFLYSKLTVDKSRWQEGNVFSCSVMHEALHNAYTQKSLSLSLG
chain 2: DVQLVESGGGVVQPGGSLRLSCAASGFTFRSFGMSWVRQAPGKGPEWVSSISGSGSDTLYADSVKGRFTISRDNSKNTLYLQMNSLRPEDTALYYCTIGGSLSRSSQGTLVTVSSDKTHTCPPCPAPEAAGGPSVFLFPPKPKDTLMASRTPEVTCVVVDVSQEDPEVQFNWYVDGVEVHNAKTKPREEQFNSTYRVVSVLTVLAQDWLNGKEYKCKVSNKGLPSSIEKTISKAKGQPREPQVCTLPPSQEEMTKNQVSLSCAVKGFYPSDIAVEWESNGQPENNYKTTPPVLDSDGSFFLVSKLTVDKSRWQEGNVFSCSVMHEALHNAYTQKSLSLSLG

How the values were obtained:
[1] = target: T1, Human serum albumin (HSA; Sigma-Aldrich Cat No. A8763) (human, UniProt P02768 25-609); experiment: SPR Biacore 8K+, HSA on CM5 chip, pH 6.0, 1:1 fit
[2] = target: T1, Human serum albumin (HSA; Sigma-Aldrich …); experiment: SPR Biacore 8K+, HSA on CM5 chip, pH 7.4, 1:1 fit
[3] = target: T2, Mouse serum albumin (MSA; Albumin Bioscience Cat No. 2601) (mouse, UniProt P07724 25-608); experiment: SPR Biacore 8K+, MSA on CM5 chip, pH 6.0, 1:1 fit
[4] = target: T2, Mouse serum albumin (MSA; Albumin …); experiment: SPR Biacore 8K+, MSA on CM5 chip, pH 7.4, 1:1 fit
[5] = target: T3, Human FcRn (biotinylated human FcRn) (human, UniProt P61769 21-119); experiment: SPR Biacore 8K+, biotinylated hFcRn on SA chip (~500-600 RU), pH 6.0, bivalent analyte fit;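 also: analytes were Fc proteins binding to biotinylated human FcRn captured on a Series S streptavidin sensor chip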
T3 construct: Biotinylated human FcRn captured on a Series S Sensor Chip SA; also called human neonatal Fc receptor; hFcRn

[6] = target: T3, Human FcRn (biotinylated human FcRn); experiment: SPR Biacore 8K+, biotinylated hFcRn on SA chip (~500-600 RU), pH 6.0, bivalent analyte fit (KD1)
[7] = target: T3, Human FcRn (biotinylated human FcRn); experiment: SPR Biacore 8K+, biotinylated hFcRn on SA chip (~500-600 RU), pH 6.0, bivalent analyte fit (ka1)
[8] = target: T3, Human FcRn (biotinylated human FcRn); experiment: SPR Biacore 8K+, biotinylated hFcRn on SA chip (~500-600 RU), pH 6.0, bivalent analyte fit (kd1)
[9] = target: T1, Human serum albumin (HSA; Sigma-Aldrich …); experiment: SPR Biacore 8K+, HSA on C1 chip, pH 7.4, 1:1 fit
[10] = target: T2, Mouse serum albumin (MSA; Albumin …); experiment: SPR Biacore 8K+, MSA on C1 chip, pH 7.4, 1:1 fit (off-rate only)

Binder | Kd [1] | koff [1] | kon [1] | Kd [2] | koff [2] | kon [2] | Kd [3] | koff [3] | kon [3] | Kd [4] | koff [4] | kon [4] | KD2 [5] | ka2 [5] | kd2 [5] | Kd [6] | kon [7] | koff [8] | other results
B1 | 26 nM | 0.0016 s⁻¹ | 61000 M⁻¹ s⁻¹ | 51 nM | 0.0019 s⁻¹ | 36000 M⁻¹ s⁻¹ | 50 nM | 0.5 s⁻¹ | 1e+07 M⁻¹ s⁻¹ | 50 nM | 0.5 s⁻¹ | 1e+07 M⁻¹ s⁻¹ | – | – | – | – | – | – | –
B2 | – | – | – | – | – | – | – | – | – | – | – | – | 4.53 M | 3.79e-05 1/RUs | 0.000172 s⁻¹ | 1260 nM | 62900 M⁻¹ s⁻¹ | 0.0794 s⁻¹ | –
B3 | – | – | – | – | – | – | – | – | – | – | – | – | – | – | – | 1860 nM | 57500 M⁻¹ s⁻¹ | 0.107 s⁻¹ | Kd [9]: 2.24 nM; koff [9]: 0.000201 s⁻¹; kon [9]: 89500 M⁻¹ s⁻¹; koff [10]: 0.00111 s⁻¹
B4 | – | – | – | – | – | – | – | – | – | – | – | – | 4.24 M | 3.22e-05 1/RUs | 0.000136 s⁻¹ | 941 nM | 82800 M⁻¹ s⁻¹ | 0.0779 s⁻¹ | –
B5 | – | – | – | – | – | – | – | – | – | – | – | – | 3.98 M | 0.0232 1/RUs | 0.0922 s⁻¹ | 179 nM | 93300 M⁻¹ s⁻¹ | 0.0167 s⁻¹ | –
B6 | 3.7 nM | 0.0004 s⁻¹ | 110000 M⁻¹ s⁻¹ | 9.3 nM | 0.00057 s⁻¹ | 61000 M⁻¹ s⁻¹ | 22 nM | 0.0038 s⁻¹ | 170000 M⁻¹ s⁻¹ | 35 nM | 0.0042 s⁻¹ | 120000 M⁻¹ s⁻¹ | – | – | – | – | – | – | –
